The values below come from publication PMC8837605, “In vitro reconstitution of an efficient nucleotide excision repair system using mesophilic enzymes from Deinococcus radiodurans”.

Series [1] deals with T1, drUvrA1 (Deinococcus radiodurans, UniProt Q46577 1-1016). The series can be described thus: fluorescence polarization; 2.5 mM Mg2+, 2.5 mM ATP; Hill 1.34; 50 mM Tris pH 7.5, 50 mM KCl, 5 mM DTT, 0.01% Tween 20, 2.5 mM MgCl2, 2.5 mM ATP, 0.1 mg/mL BSA; room temperature; 2 nM DNA, 0-1 uM drUvrA1 (dimer). The following applies: protein: recombinant; tags: N-terminal His-tag removed by TEV; chain copies: 2; label: 5'-ATTO633 on strand 1; internal fluorescein-dT; blunt. For orientation: Fluorescence polarisation rises when a labelled molecule tumbles more slowly, as on binding a larger partner.

In series [2] the target is T1, drUvrA1. The series can be described thus: fluorescence polarization; 2.5 mM Mg2+, 2.5 mM ATP; Hill 0.97; 50 mM Tris pH 7.5, 50 mM KCl, 5 mM DTT, 0.01% Tween 20, 2.5 mM MgCl2, 2.5 mM ATP, 0.1 mg/mL BSA; room temperature; 2 nM DNA, 0-1 uM drUvrA1 (dimer). The note with it: protein: recombinant; tags: N-terminal His-tag removed by TEV; chain copies: 2; label: 5'-FAM on strand 1; blunt.

Series [3] concerns the target T1, drUvrA1. The series can be described thus: fluorescence polarization; 2.5 mM Mg2+, 2.5 mM ATP; Hill 0.92; 50 mM Tris pH 7.5, 50 mM KCl, 5 mM DTT, 0.01% Tween 20, 2.5 mM MgCl2, 2.5 mM ATP, 0.1 mg/mL BSA; room temperature; 2 nM DNA, 0-1 uM drUvrA1 (dimer). The note with it: protein: recombinant; tags: N-terminal His-tag removed by TEV; chain copies: 2; label: 5'-FAM on strand 1; blunt.

In series [4] the target is T1, drUvrA1. Briefly: fluorescence polarization; 2.5 mM Mg2+, 2.5 mM ATP; Hill 2.10; 50 mM Tris pH 7.5, 50 mM KCl, 5 mM DTT, 0.01% Tween 20, 2.5 mM MgCl2, 2.5 mM ATP, 0.1 mg/mL BSA; room temperature; 2 nM DNA, 0-1 uM drUvrA1 (dimer). The following applies: protein: recombinant; tags: N-terminal His-tag removed by TEV; chain copies: 2; label: 5'-ATTO633 on strand 1; internal fluorescein-dT; blunt.

The Kd is a measure of binding affinity in units of concentration.

T1 sequence (Q46577 whole entry): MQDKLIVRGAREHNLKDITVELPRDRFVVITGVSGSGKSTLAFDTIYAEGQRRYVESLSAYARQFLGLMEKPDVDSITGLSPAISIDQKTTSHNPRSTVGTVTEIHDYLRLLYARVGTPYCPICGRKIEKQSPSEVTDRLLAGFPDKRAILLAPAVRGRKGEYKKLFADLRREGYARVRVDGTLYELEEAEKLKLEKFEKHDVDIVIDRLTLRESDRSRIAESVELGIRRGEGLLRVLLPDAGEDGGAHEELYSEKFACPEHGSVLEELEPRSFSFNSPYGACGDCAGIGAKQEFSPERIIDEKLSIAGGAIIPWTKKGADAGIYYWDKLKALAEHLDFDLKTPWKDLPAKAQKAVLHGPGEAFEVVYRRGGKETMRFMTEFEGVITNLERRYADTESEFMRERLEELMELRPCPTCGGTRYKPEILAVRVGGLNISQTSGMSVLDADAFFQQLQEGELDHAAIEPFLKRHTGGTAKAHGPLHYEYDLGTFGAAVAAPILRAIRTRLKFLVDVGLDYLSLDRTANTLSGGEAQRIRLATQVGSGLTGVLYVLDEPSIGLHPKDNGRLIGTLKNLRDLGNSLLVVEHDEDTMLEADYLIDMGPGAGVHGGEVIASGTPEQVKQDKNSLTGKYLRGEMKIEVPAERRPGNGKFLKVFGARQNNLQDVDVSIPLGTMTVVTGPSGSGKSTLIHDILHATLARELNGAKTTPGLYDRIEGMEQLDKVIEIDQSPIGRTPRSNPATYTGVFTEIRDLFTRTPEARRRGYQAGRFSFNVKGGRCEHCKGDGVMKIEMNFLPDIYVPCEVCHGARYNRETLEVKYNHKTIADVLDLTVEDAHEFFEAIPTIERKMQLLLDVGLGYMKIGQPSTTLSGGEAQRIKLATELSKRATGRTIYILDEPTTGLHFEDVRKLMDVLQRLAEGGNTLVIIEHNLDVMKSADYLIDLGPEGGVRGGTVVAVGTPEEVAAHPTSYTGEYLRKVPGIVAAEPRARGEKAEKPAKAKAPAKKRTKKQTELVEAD

B1: F26-seq1 (dsDNA)
DNA 1: GACTACGTACTGTTACGGCTCCATCTCTACCGCAATCAGGCCAGATCTGC
DNA 2: GCAGATCTGGCCTGATTGCGGTAGAGATGGAGCCGTAACAGTACGTAGTC
modifications: fluorescein-conjugated dT at position 26 of strand 1
Consider B1, for which the dissociation constant Kd in the series with drUvrA1 [1] was 9 ± 0.7 nM.

B2: B26-seq1 (dsDNA)
DNA 1: GACTACGTACTGTTACGGCTCCATCTCTACCGCAATCAGGCCAGATCTGC
DNA 2: GCAGATCTGGCCTGATTGCGGTAGAGATGGAGCCGTAACAGTACGTAGTC
modifications: biotin-conjugated dT at position 26 of strand 1
For the molecule B2, in the series with drUvrA1 [2], the Kd came out at 128 ± 15 nM.

B3: 5'-FAM-seq1 (seq1-FAM) (dsDNA)
DNA 1: GACTACGTACTGTTACGGCTCCATCTCTACCGCAATCAGGCCAGATCTGC
DNA 2: GCAGATCTGGCCTGATTGCGGTAGAGATGGAGCCGTAACAGTACGTAGTC
In the case of B3, the Kd in the series with drUvrA1 [3] is 85 ± 12 nM.

B4: F26-seq2 (dsDNA)
DNA 1: GTTAGCGAACGATACCTTCAGTAGATCAAGTCCTAGCTGACCGGTTCGGC
DNA 2: GCCGAACCGGTCAGCTAGGACTTGATCTACTGAAGGTATCGTTCGCTAAC
modifications: fluorescein-conjugated dT at position 26 of strand 1
In the case of B4, the Kd with drUvrA1 [4] was found to be 9 ± 0.5 nM.
